Measured values published in patent publication US20200140835.

What was measured:
[1] = tested on: Helical-III domain of SpCas9, supplied in trans
[2] = tested on: SpCas9 delta-Helical-III deletion F498-Q712 replaced by GGS linker (Streptococcus pyogenes); experiment: cleavage_in_vitro; details: Helical-III in trans rescues ~100-fold; 5 mM MgCl2

Substance	cleavage with a PAM-distal mismatched target [1]	on-target cleavage rate (radiolabeled DNA cleavage assay) [1]	activity (fold decrease vs WT) [2]
SpCas9ΔHelical-III (ΔF498-Q712 with GGS linker)	had no effect on cleavage with a PAM-distal mismatched target	rescued the on-target cleavage rate by ˜100-fold in a concentration-dependent manner	
lambda1-targeting sgRNA ; lambda1 on-target DNA			1000
